Measured values reported in IntAct's records for PubMed 16462746.

B1: Rab5 GDP/GTP exchange factor (Bos taurus (Bovine)), O18973 (parent)
chain: MSLKSERRGIHVDQSELLCKKGCGYYGNPAWQGFCSKCWREEYHKARQKQIQEDWELAERLQREEEEAFASSQSSQGAQSLTFSKFEEKKTNEKTRKVTTVKKFFSASSRVGAKKAEIQEAKAPSPSINRQTSIETDRVSKEFIEFLKTFHKTGQEIYKQTKLFLEAMHYKRDLSIEEQSECTQDFYQNVAERMQTRGKVPPERVEKIMDQIEKYIMTRLYKYVFCPETTDDEKKDLAIQKRIRALHWVTPQMLCVPVNEEIPEVSDMVVKAITDIIEMDSKRVPRDKLACITKCSKHIFNAIKITKNEPASADDFLPTLIYIVLKGNPPRLQSNIQYITRFCNPSRLMTGEDGYYFTNLCCAVAFIEKLDAQSLNLSQEDFDRYMSGQTSPRKQESENWSPDACLGVKQMYKNLDLLSQLNERQERIMNEAKKLEKDLIDWTDGIAKEVQDIVEKYPLEIRPPNQSVAAIDSENVENDKLPPPLQPQVYAG

Variants of: B1
Settings: with UBE2D3, P61077-1
Sequence of UBE2D3, P61077-1 (P61077 whole entry): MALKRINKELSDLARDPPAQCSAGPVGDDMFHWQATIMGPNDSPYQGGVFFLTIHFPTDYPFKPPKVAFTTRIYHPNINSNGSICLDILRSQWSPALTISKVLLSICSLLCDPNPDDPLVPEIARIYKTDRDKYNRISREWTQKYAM

| effect of a mutation on the interaction | Variant |
| --- | --- |
| disrupting interaction | Y25A;Y26A |
